# Paper PMC9482650, “Quantitative fragmentomics allow affinity mapping of interactomes” (Nature Communications, 2022)
# T1: APBA1_1, Q02410
# T1 sequence (Q02410 651-752, limits assumed, looked up): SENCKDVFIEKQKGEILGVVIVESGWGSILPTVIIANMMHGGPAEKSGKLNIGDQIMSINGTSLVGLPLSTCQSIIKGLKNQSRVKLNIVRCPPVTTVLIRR
# T2: APBA2_1, Q99767
# T2 sequence (Q99767 563-664, limits assumed, looked up): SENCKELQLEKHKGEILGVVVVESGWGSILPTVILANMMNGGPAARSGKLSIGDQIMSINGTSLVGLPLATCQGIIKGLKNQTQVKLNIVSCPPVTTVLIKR
# T3: ARHGAP21, Q5T5U3
# T3 sequence (Q5T5U3 45-169, limits assumed, looked up): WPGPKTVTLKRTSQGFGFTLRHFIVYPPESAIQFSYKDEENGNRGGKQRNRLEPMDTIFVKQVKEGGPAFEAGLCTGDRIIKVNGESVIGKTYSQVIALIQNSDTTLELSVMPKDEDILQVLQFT
# T4: MPDZ_10, O75970
# T4 sequence (O75970 1624-1722, limits assumed, looked up): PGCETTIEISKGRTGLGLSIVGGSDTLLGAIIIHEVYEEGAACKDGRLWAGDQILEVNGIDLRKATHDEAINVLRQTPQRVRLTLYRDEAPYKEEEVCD
# T5: MPDZ_12, O75970
# T5 sequence (O75970 1857-1958, limits assumed, looked up): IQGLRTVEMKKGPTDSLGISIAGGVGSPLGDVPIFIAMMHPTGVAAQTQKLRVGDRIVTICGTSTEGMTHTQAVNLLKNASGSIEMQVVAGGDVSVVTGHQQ
# T6: MPDZ_5, O75970
# T6 sequence (O75970 695-796, limits assumed, looked up): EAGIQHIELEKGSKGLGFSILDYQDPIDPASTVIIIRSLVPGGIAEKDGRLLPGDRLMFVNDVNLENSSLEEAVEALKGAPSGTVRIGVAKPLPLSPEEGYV
# T7: PARD3B_1, Q8TEW8
# T7 sequence (Q8TEW8 196-299, limits assumed, looked up): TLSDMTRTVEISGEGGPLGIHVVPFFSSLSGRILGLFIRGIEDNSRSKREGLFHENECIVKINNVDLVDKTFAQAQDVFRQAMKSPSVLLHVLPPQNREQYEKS
# T8: RADIL, Q96JH8
# T8 sequence (Q96JH8 971-1071, limits assumed, looked up): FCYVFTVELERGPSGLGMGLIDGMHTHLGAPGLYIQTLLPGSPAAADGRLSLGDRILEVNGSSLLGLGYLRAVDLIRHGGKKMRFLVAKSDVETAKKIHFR
# T9: RAPGEF6, Q8TEU7
# T9 sequence (Q8TEU7 525-625, limits assumed, looked up): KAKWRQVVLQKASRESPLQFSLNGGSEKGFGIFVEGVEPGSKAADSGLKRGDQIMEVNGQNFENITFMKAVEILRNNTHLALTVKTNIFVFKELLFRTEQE
# T10: SHANK1, Q9Y566
# T10 sequence (Q9Y566 658-767, limits assumed, looked up): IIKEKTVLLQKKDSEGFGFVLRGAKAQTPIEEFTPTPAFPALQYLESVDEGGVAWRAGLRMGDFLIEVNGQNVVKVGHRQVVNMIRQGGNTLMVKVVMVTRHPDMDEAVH
# Target: AHNAK1, Q09666
# Sequence (Q09666 4-100): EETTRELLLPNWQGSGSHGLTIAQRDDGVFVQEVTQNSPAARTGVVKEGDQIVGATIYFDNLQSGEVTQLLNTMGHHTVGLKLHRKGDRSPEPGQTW
# Test: holdup assay
# Design: key: below the threshold = too weak to quantify, mostly under pKd 3.1 to 4
# Conditions: plain residues with an end cap or a label only (N-terminal biotin on a linker: ttds)
row,Binder,pKd
1,"SRRPRTETQV [HPV31-E6, P17386]",below the threshold

# Target: T1, APBA1_1, Q02410
# Test: holdup assay
# Design: key: below the threshold = too weak to quantify, mostly under pKd 3.1 to 4
# Conditions: plain residues with an end cap or a label only (N-terminal biotin on a linker: ttds)
row,Binder,pKd
1,"SRRPRTETQV [HPV31-E6, P17386]",below the threshold

# Target: T2, APBA2_1, Q99767
# Test: holdup assay
# Design: key: below the threshold = too weak to quantify, mostly under pKd 3.1 to 4
# Conditions: plain residues with an end cap or a label only (N-terminal biotin on a linker: ttds)
row,Binder,pKd
1,"SRRPRTETQV [HPV31-E6, P17386]",below the threshold

# Target: T3, ARHGAP21, Q5T5U3
# Test: holdup assay
# Design: key: below the threshold = too weak to quantify, mostly under pKd 3.1 to 4
# Conditions: plain residues with an end cap or a label only (N-terminal biotin on a linker: ttds)
row,Binder,pKd
1,"SRRPRTETQV [HPV31-E6, P17386]",below the threshold

# Target: DLG1_3, Q12959
# Sequence (Q12959 457-571): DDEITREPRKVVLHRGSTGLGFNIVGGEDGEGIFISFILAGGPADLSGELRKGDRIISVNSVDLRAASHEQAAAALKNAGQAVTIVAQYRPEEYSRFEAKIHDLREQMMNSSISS
# Test: holdup assay
# Design: key: below the threshold = too weak to quantify, mostly under pKd 3.1 to 4
# Conditions: plain residues with an end cap or a label only (N-terminal biotin on a linker: ttds)
row,Binder,pKd
1,"SRRPRTETQV [HPV31-E6, P17386]",4.6

# Target: DLG5_1, Q8TDM6
# Sequence (Q8TDM6 617-713): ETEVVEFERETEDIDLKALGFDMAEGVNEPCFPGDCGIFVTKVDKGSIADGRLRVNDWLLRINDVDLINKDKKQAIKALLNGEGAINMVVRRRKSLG
# Test: holdup assay
# Design: key: below the threshold = too weak to quantify, mostly under pKd 3.1 to 4
# Conditions: plain residues with an end cap or a label only (N-terminal biotin on a linker: ttds)
row,Binder,pKd
1,"SRRPRTETQV [HPV31-E6, P17386]",below the threshold

# Target: FRMPD2_2, Q68DX3
# Sequence (Q68DX3 944-1038): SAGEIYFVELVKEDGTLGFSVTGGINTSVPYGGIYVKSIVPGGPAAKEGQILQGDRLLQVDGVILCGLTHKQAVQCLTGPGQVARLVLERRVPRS
# Test: holdup assay
# Design: key: below the threshold = too weak to quantify, mostly under pKd 3.1 to 4
# Conditions: plain residues with an end cap or a label only (N-terminal biotin on a linker: ttds)
row,Binder,pKd
1,"SRRPRTETQV [HPV31-E6, P17386]",below the threshold

# Target: GOPC, Q9HD26
# Test: holdup assay
# Design: key: below the threshold = too weak to quantify, mostly under pKd 3.1 to 4
# Conditions: plain residues with an end cap or a label only (N-terminal biotin on a linker: ttds)
row,Binder,pKd
1,"SRRPRTETQV [HPV31-E6, P17386]",below the threshold

# Target: GRASP, Q7Z6J2
# Sequence (Q7Z6J2 96-193): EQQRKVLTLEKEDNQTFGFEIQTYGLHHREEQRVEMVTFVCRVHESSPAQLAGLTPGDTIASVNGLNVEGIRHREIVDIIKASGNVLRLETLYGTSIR
# Test: holdup assay
# Design: key: below the threshold = too weak to quantify, mostly under pKd 3.1 to 4
# Conditions: plain residues with an end cap or a label only (N-terminal biotin on a linker: ttds)
row,Binder,pKd
1,"SRRPRTETQV [HPV31-E6, P17386]",below the threshold

# Target: GRID2IP_1, A4D2P6
# Sequence (A4D2P6 1-87): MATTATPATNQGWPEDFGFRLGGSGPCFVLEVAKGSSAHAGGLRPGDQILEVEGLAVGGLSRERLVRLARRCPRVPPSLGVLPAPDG
# Test: holdup assay
# Design: key: below the threshold = too weak to quantify, mostly under pKd 3.1 to 4
# Conditions: plain residues with an end cap or a label only (N-terminal biotin on a linker: ttds)
row,Binder,pKd
1,"SRRPRTETQV [HPV31-E6, P17386]",below the threshold

# Target: IL16_1, Q14005
# Sequence (Q14005 210-306): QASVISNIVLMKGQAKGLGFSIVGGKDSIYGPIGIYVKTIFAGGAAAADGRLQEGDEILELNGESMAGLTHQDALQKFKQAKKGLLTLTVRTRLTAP
# Test: holdup assay
# Design: key: below the threshold = too weak to quantify, mostly under pKd 3.1 to 4
# Conditions: plain residues with an end cap or a label only (N-terminal biotin on a linker: ttds)
row,Binder,pKd
1,"SRRPRTETQV [HPV31-E6, P17386]",below the threshold

# Target: Inadl_9, Q8NI35
# Sequence (Q8NI35 1530-1615): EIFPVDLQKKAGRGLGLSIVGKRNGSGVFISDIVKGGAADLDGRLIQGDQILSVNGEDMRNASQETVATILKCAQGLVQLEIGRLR
# Test: holdup assay
# Design: key: below the threshold = too weak to quantify, mostly under pKd 3.1 to 4
# Conditions: plain residues with an end cap or a label only (N-terminal biotin on a linker: ttds)
row,Binder,pKd
1,"SRRPRTETQV [HPV31-E6, P17386]",below the threshold

# Target: LAP2, Q96RT1
# Sequence (Q96RT1 other isoform, or with tags, fused parts or gaps): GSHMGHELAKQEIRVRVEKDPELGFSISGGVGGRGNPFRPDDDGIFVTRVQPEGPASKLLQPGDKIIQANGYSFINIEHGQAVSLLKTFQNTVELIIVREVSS
# Test: holdup assay
# Design: key: below the threshold = too weak to quantify, mostly under pKd 3.1 to 4
# Conditions: plain residues with an end cap or a label only (N-terminal biotin on a linker: ttds)
row,Binder,pKd
1,"SRRPRTETQV [HPV31-E6, P17386]",3.9

# Target: LNX1_1, Q8TBB1
# Sequence (Q8TBB1 261-371): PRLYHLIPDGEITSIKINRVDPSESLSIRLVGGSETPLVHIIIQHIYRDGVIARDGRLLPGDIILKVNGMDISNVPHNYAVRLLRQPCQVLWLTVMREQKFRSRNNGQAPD
# Test: holdup assay
# Design: key: below the threshold = too weak to quantify, mostly under pKd 3.1 to 4
# Conditions: plain residues with an end cap or a label only (N-terminal biotin on a linker: ttds)
row,Binder,pKd
1,"SRRPRTETQV [HPV31-E6, P17386]",below the threshold

# Target: MAGI2_4, Q86UL8
# Sequence (Q86UL8 772-865): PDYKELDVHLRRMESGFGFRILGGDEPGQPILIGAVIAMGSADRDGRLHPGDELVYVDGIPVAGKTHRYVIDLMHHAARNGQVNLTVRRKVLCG
# Test: holdup assay
# Design: key: below the threshold = too weak to quantify, mostly under pKd 3.1 to 4
# Conditions: plain residues with an end cap or a label only (N-terminal biotin on a linker: ttds)
row,Binder,pKd
1,"SRRPRTETQV [HPV31-E6, P17386]",4.48

# Target: MAGI3_2, Q5TCQ9
# Sequence (Q5TCQ9 398-503): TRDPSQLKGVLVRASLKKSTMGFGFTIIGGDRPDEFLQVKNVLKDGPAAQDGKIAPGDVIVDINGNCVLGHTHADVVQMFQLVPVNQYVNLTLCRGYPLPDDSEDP
# Test: holdup assay
# Design: key: below the threshold = too weak to quantify, mostly under pKd 3.1 to 4
# Conditions: plain residues with an end cap or a label only (N-terminal biotin on a linker: ttds)
row,Binder,pKd
1,"SRRPRTETQV [HPV31-E6, P17386]",5.87

# Target: T4, MPDZ_10, O75970
# Test: holdup assay
# Design: key: below the threshold = too weak to quantify, mostly under pKd 3.1 to 4
# Conditions: plain residues with an end cap or a label only (N-terminal biotin on a linker: ttds)
row,Binder,pKd
1,"SRRPRTETQV [HPV31-E6, P17386]",below the threshold

# Target: T5, MPDZ_12, O75970
# Test: holdup assay
# Design: key: below the threshold = too weak to quantify, mostly under pKd 3.1 to 4
# Conditions: plain residues with an end cap or a label only (N-terminal biotin on a linker: ttds)
row,Binder,pKd
1,"SRRPRTETQV [HPV31-E6, P17386]",below the threshold

# Target: T6, MPDZ_5, O75970
# Test: holdup assay
# Design: key: below the threshold = too weak to quantify, mostly under pKd 3.1 to 4
# Conditions: plain residues with an end cap or a label only (N-terminal biotin on a linker: ttds)
row,Binder,pKd
1,"SRRPRTETQV [HPV31-E6, P17386]",below the threshold

# Target: NHERF4_1, Q86UT5-2
# Sequence (Q86UT5 other isoform, or with tags, fused parts or gaps): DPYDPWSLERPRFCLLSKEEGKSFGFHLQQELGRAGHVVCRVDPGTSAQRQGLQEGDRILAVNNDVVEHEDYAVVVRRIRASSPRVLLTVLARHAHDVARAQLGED
# Test: holdup assay
# Design: key: below the threshold = too weak to quantify, mostly under pKd 3.1 to 4
# Conditions: plain residues with an end cap or a label only (N-terminal biotin on a linker: ttds)
row,Binder,pKd
1,"SRRPRTETQV [HPV31-E6, P17386]",below the threshold

# Target: NHERF4_2, Q86UT5
# Sequence (Q86UT5 220-308): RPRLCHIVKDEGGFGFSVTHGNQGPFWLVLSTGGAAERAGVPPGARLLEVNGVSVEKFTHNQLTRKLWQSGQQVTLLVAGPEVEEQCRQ
# Test: holdup assay
# Design: key: below the threshold = too weak to quantify, mostly under pKd 3.1 to 4
# Conditions: plain residues with an end cap or a label only (N-terminal biotin on a linker: ttds)
row,Binder,pKd
1,"SRRPRTETQV [HPV31-E6, P17386]",below the threshold

# Target: T7, PARD3B_1, Q8TEW8
# Test: holdup assay
# Design: key: below the threshold = too weak to quantify, mostly under pKd 3.1 to 4
# Conditions: plain residues with an end cap or a label only (N-terminal biotin on a linker: ttds)
row,Binder,pKd
1,"SRRPRTETQV [HPV31-E6, P17386]",below the threshold

# Target: T8, RADIL, Q96JH8
# Test: holdup assay
# Design: key: below the threshold = too weak to quantify, mostly under pKd 3.1 to 4
# Conditions: plain residues with an end cap or a label only (N-terminal biotin on a linker: ttds)
row,Binder,pKd
1,"SRRPRTETQV [HPV31-E6, P17386]",below the threshold

# Target: T9, RAPGEF6, Q8TEU7
# Test: holdup assay
# Design: key: below the threshold = too weak to quantify, mostly under pKd 3.1 to 4
# Conditions: plain residues with an end cap or a label only (N-terminal biotin on a linker: ttds)
row,Binder,pKd
1,"SRRPRTETQV [HPV31-E6, P17386]",below the threshold

# Target: SCRIB_1, Q14160
# Sequence (Q14160 718-814): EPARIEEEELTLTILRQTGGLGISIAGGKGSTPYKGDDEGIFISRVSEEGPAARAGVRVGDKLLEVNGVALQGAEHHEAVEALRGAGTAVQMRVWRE
# Test: holdup assay
# Design: key: below the threshold = too weak to quantify, mostly under pKd 3.1 to 4
# Conditions: plain residues with an end cap or a label only (N-terminal biotin on a linker: ttds)
row,Binder,pKd
1,"SRRPRTETQV [HPV31-E6, P17386]",4.6

# Target: T10, SHANK1, Q9Y566
# Test: holdup assay
# Design: key: below the threshold = too weak to quantify, mostly under pKd 3.1 to 4
# Conditions: plain residues with an end cap or a label only (N-terminal biotin on a linker: ttds)
row,Binder,pKd
1,"SRRPRTETQV [HPV31-E6, P17386]",below the threshold
